Experimental data: patent US20180148504A1 (EISAI R AND D MANAGEMENT, published 2018)

B1: Monoclonal antibody 24H8.F3 (antibody, mouse IgG1, V domains shown)
VH: GPGLVAPSQSLSITCTVSGFSLTSYGVSWVRQPPGKGLEWLGVIWGDGSTNYHSTLISRLSISKDNSKSQVFLKLNSLQTDDTATYYCAKPHPAATGAMDYWGQGTSVTVSS
VL: TTSSLSASLGDRVTISCRASQDISNHLNWYQQKPDGTIKLLIYYTSKLHSGVPSRFSGSGSGTDYSLTISNLEQEDIATYFCQQGNTLWTFGGGTKLEIK
notes: Murine IgG1 kappa from hybridoma; also called ATCC PTA-123097
B2: Monoclonal antibody 1A8.G11.E7 (antibody, mouse IgG1, V domains shown)
VH: ESGPGLVAPSQSLSITCTVSGFSLTSYGVSWVRQPPGKGLEWLGVIWGDGSTNYHSTLISRLSISKDNSKSQVFLKLNSLQTDDTATYYCAKPHPAATGAMDYWGQGTSVTVSS
VL: TQTTSSLSASLGDRVTISCRASQDISNHLNWYQQKPDGTVKLLIYYTSRLHSGVPSRFSGSGSGTDYSLTISNLEQEDIATYFCQQGNTLWTFGGGTKLEIK
notes: Murine IgG1 kappa from hybridoma; also called ATCC PTA-123100
B3: Monoclonal antibody 1D2.D8.G10 (antibody, mouse IgG1, V domains shown)
VH: QSGTVLARPGASVKMSCKASGYSFTSNWMHWIKQRPGQGLEWIGAIYPGNSDTSYNQKFKGKAKLTAVTSASTAYMELSSLTNEDSAVYHCTRGDGSSFWYFDVWGAGTTVTVSS
VL: QSPASLVVSLGQRATISCRASKSVSTSGYSYMYWYQQKSGQPPKLLIYLASNLESGVPARFSGGGSGTDFTLNIHPVEEEDAATYYCQQSRELPPTFGGGTKLEIK
notes: Murine IgG1 kappa from hybridoma; also called 1D2.D8.G0; ATCC PTA-123098

Assays:
[1] = biological target: T1, recombinant purified FRα (ECL assay calibrator) (human, UniProt P15328 25-234); assay: ECL sandwich, FRα calibrator; capture 6A2.G7; binder = detection Ab
T1 construct: Calibrator of the ECL sandwich assays; also called FRα calibrator; FRα standard

[2] = biological target: T1, recombinant purified FRα (ECL assay …); assay: ECL sandwich, FRα calibrator; capture 19D2.G9; binder = detection Ab
[3] = biological target: T1, recombinant purified FRα (ECL assay …); assay: ECL sandwich, FRα calibrator; capture 24H8.D3; binder = detection Ab
[4] = biological target: T1, recombinant purified FRα (ECL assay …); assay: ECL sandwich, FRα calibrator; capture 24H8.F3; binder = detection Ab
[5] = biological target: T1, recombinant purified FRα (ECL assay …); assay: ECL sandwich, FRα calibrator; capture 26A9.C4; binder = detection Ab
[6] = biological target: T1, recombinant purified FRα (ECL assay …); assay: ECL sandwich, FRα calibrator; capture 2F11.F8; binder = detection Ab
[7] = biological target: T1, recombinant purified FRα (ECL assay …); assay: ECL sandwich, FRα calibrator; capture 5C12.H8; binder = detection Ab
[8] = biological target: T1, recombinant purified FRα (ECL assay …); assay: ECL sandwich, FRα calibrator; capture 19D4.B7; binder = detection Ab
[9] = biological target: T1, recombinant purified FRα (ECL assay …); assay: ECL sandwich, FRα calibrator; capture 28H12.G9; binder = detection Ab
[10] = biological target: T1, recombinant purified FRα (ECL assay …); assay: ECL sandwich, FRα calibrator; capture 1C6.E12.G8; binder = detection Ab
[11] = biological target: T1, recombinant purified FRα (ECL assay …); assay: ECL sandwich, FRα calibrator; capture 1D2.G8.G10; binder = detection Ab
[12] = biological target: T1, recombinant purified FRα (ECL assay …); assay: ECL sandwich, FRα calibrator; capture 1A8.G11.E7; binder = detection Ab
[13] = biological target: T2, human folate receptor beta (FRβ), recombinant, C-terminal 6xHis (human, UniProt P14207 17-230, limits assumed); assay: direct ELISA, plates coated with 1 µg/mL FR isoform, dilution series of culture supernatant
T2 construct: Transiently expressed in 293F cells and purified; coated on ELISA plates

[14] = biological target: T3, human folate receptor gamma (FRγ), recombinant, C-terminal 6xHis (human, UniProt P41439 23-245, limits assumed); assay: as above
T3 construct: Transiently expressed in 293F cells and purified; coated on ELISA plates

[15] = biological target: T1, recombinant purified FRα (ECL assay …); assay: ECL sandwich, FRα calibrator; capture 30G6.G6.G4.E9; binder = detection Ab
[16] = biological target: T1, recombinant purified FRα (ECL assay …); assay: ECL sandwich on FRα, signal to background; capture 6A2.G7; binder = detection Ab
[17] = biological target: T1, recombinant purified FRα (ECL assay …); assay: ECL sandwich on FRα, signal to background; capture 19D2.G9; binder = detection Ab
[18] = biological target: T1, recombinant purified FRα (ECL assay …); assay: ECL sandwich on FRα, signal to background; capture 24H8.D3; binder = detection Ab
[19] = biological target: T1, recombinant purified FRα (ECL assay …); assay: ECL sandwich on FRα, signal to background; capture 24H8.F3; binder = detection Ab
[20] = biological target: T1, recombinant purified FRα (ECL assay …); assay: ECL sandwich on FRα, signal to background; capture 26A9.C4; binder = detection Ab
[21] = biological target: T1, recombinant purified FRα (ECL assay …); assay: ECL sandwich on FRα, signal to background; capture 2F11.F8; binder = detection Ab
[22] = biological target: T1, recombinant purified FRα (ECL assay …); assay: ECL sandwich on FRα, signal to background; capture 5C12.H8; binder = detection Ab
[23] = biological target: T1, recombinant purified FRα (ECL assay …); assay: ECL sandwich on FRα, signal to background; capture 19D4.B7; binder = detection Ab
[24] = biological target: T1, recombinant purified FRα (ECL assay …); assay: ECL sandwich on FRα, signal to background; capture 28H12.G9; binder = detection Ab
[25] = biological target: T1, recombinant purified FRα (ECL assay …); assay: ECL sandwich on FRα, signal to background; capture 1C6.E12.G8; binder = detection Ab
[26] = biological target: T1, recombinant purified FRα (ECL assay …); assay: ECL sandwich on FRα, signal to background; capture 1D2.G8.G10; binder = detection Ab
[27] = biological target: T1, recombinant purified FRα (ECL assay …); assay: ECL sandwich on FRα, signal to background; capture 1A8.G11.E7; binder = detection Ab
[28] = biological target: T1, recombinant purified FRα (ECL assay …); assay: ECL sandwich on FRα, signal to background; capture 30G6.G6.G4.E9; binder = detection Ab
[29] = biological target: T4, recombinant human folate receptor alpha (rhFRα) (human, UniProt P15328 25-234); assay: BIAcore (SPR), format not described
T4 construct: CHO: Ig kappa leader, C-terminal 6xHis replacing the GPI attachment site; also called FOLR1; FOLR-1
T4 sequence (P15328 25-234 limits assumed): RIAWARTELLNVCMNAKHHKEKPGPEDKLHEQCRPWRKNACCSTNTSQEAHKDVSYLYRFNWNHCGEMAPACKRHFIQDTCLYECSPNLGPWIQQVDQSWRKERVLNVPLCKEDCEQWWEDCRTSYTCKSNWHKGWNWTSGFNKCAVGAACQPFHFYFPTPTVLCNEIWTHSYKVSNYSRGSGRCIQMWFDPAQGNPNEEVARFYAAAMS

T3 sequence (P41439 other isoform, or with tags, fused parts or gaps limits assumed): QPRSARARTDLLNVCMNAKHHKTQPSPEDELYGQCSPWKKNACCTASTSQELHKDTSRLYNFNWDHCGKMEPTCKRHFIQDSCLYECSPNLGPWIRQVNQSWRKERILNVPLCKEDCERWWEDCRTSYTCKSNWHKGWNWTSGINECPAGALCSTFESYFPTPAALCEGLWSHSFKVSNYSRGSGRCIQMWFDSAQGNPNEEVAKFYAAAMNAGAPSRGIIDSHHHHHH
T2 sequence (P14207 other isoform, or with tags, fused parts or gaps limits assumed): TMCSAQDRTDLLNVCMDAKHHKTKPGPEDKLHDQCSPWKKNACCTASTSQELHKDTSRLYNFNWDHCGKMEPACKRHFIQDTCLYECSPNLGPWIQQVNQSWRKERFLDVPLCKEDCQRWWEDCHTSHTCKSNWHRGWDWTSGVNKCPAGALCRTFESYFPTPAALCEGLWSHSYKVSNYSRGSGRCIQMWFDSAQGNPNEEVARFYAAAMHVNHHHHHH
T1 sequence (P15328 25-234 limits assumed): as the sequence (P15328 25-234 limits assumed) above

| Binder | Specific signal at 500 pg/mL [1] | Specific signal at 500 pg/mL [2] | Specific signal at 500 pg/mL [3] | Specific signal at 500 pg/mL [4] | Specific signal at 500 pg/mL [5] | Specific signal at 500 pg/mL [6] | Specific signal at 500 pg/mL [7] | Specific signal at 500 pg/mL [8] | Specific signal at 500 pg/mL [9] | Specific signal at 500 pg/mL [10] | Specific signal at 500 pg/mL [11] | Specific signal at 500 pg/mL [12] | binding result [13] | binding result [14] | Specific signal at 500 pg/mL [15] | Average of S/B [16] | Average of S/B [17] | Average of S/B [18] | Average of S/B [19] | Average of S/B [20] | also measured |
| --- | --- | --- | --- | --- | --- | --- | --- | --- | --- | --- | --- | --- | --- | --- | --- | --- | --- | --- | --- | --- | --- |
| B1 | 1870 | 242 | 158 | 104 | 72 | 61 | 70 | 33600 | 85 | 64 | 64 | 139 | no binding | no binding | 28300 | 27 | 4 | 2 | 1 | 1 | Average of S/B [21]: 1; Average of S/B [22]: 2; Average of S/B [23]: 327; Average of S/B [24]: 2; Average of S/B [25]: 1; Average of S/B [26]: 1; Average of S/B [27]: 2; Average of S/B [28]: 501 |
| B2 | 1840 | 106 | 84 | 87 | 80 | 60 | 76 | 41400 | 83 | 75 | 64 | 67 | no binding | no binding | 17900 | 27 | 2 | 1 | 1 | 1 | Average of S/B [21]: 1; Average of S/B [22]: 1; Average of S/B [23]: 310; Average of S/B [24]: 1; Average of S/B [25]: 1; Average of S/B [26]: 1; Average of S/B [27]: 1; Average of S/B [28]: 244 |
| B3 | 1690 | 67 | 79 | 67 | 86 | 62 | 73 | 21800 | 78 | 74 | 87 | 57 | no binding | no binding | 7910 | 26 | 1 | 1 | 1 | 1 | Kd [29]: 6.88 nM; Average of S/B [21]: 1; Average of S/B [22]: 1; Average of S/B [23]: 218; Average of S/B [24]: 1; Average of S/B [25]: 1; Average of S/B [26]: 1; Average of S/B [27]: 1; Average of S/B [28]: 75 |
